Literature values in article PMC8573850.
“And” between values parts separate entries of the source, which are not always exact repeats. Identical values can stand only once.

Target: Neuropilin-1 (Homo sapiens) (UniProt O14786)
Chain of UniProt O14786 (O14786 22-856): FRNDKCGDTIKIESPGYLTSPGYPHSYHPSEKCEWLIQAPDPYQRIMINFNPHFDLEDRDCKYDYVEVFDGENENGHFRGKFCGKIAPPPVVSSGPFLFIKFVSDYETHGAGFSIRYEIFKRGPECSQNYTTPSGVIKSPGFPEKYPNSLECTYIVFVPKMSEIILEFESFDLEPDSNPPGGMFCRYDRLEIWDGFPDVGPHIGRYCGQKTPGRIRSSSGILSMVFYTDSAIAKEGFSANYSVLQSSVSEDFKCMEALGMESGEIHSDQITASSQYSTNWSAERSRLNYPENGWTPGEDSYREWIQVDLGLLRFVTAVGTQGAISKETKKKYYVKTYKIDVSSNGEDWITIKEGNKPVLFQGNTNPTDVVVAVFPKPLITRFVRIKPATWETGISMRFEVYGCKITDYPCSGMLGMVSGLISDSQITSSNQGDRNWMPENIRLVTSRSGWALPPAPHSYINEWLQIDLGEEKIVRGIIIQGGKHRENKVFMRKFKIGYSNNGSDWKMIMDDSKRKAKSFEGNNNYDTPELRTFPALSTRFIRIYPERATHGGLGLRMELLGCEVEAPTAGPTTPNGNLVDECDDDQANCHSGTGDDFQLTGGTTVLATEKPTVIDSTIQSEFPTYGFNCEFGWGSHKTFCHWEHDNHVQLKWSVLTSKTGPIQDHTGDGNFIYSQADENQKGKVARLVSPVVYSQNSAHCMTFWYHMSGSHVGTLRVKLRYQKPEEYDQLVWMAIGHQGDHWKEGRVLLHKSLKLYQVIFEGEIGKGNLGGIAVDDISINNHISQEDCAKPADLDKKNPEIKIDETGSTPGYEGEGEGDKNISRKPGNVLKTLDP

Substance: Spike protein CendR peptide CendR (from UniProt P0DTC2)
- Kd: 13 µM and 20 µM
